Results from the supplement of paper PMC12764529.
± gives the half width of the 95% confidence interval.

Experiments:
[1] = folding stability dG unfold from trypsin proteolysis; higher = more stable
Outline: (§1)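 Designed mini-proteins with no cysteine and under 80 residues were kept only if AlphaFold2 dimer inter-PAE was above 15. In a PA-tagged cDNA display construct, they were digested with trypsin and chymotrypsin and then sequenced. K50 was inferred by Bayesian fitting of counts, and unfolding free energy was derived per protease or combined against a sequence-predicted unfolded-state K50 and a shared folded-state K50.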

[2] = folding stability dG unfold (combined trypsin and chymotrypsin); higher = more stable
Outline: as §1

[3] = folding stability dG unfold from chymotrypsin proteolysis; higher = more stable
Outline: as §1

| Sequence | folding stability dG unfold [1] | folding stability dG unfold [2] | folding stability dG unfold [3] |
| --- | --- | --- | --- |
| SAGGGREIKVEFEIPHPNGNQMRITVTIYRSPGGIRIKIPVSYTDPEYRDYMREWAEYLARRIAKELSAGGS [r8_416_TrROS] | 3.05 ± 0.089 kcal/mol | 3.46 ± 0.047 kcal/mol | 3.571 ± 0.022 kcal/mol |
| SAGGSAGGSAKKKKKKFKIVKIEIEVEVVKDKKTNKYYVKVKIKIYLKGNKKEFEMEFVFPSAGGSAGGSAG [r3_424_TrROS_Hall] | 2.29 ± 0.24 kcal/mol | 3.37 ± 0.59 kcal/mol | 4.07 ± 0.24 kcal/mol |
| SAGGSMTEEERRALAEEIAKEVAEKISEEEGIPVKEILSIEVHPDGSVTITIKFPGTEGERTITIPRSAGGS [r16_622_JUSTAS] | 1.96 ± 0.067 kcal/mol | 2.27 ± 0.19 kcal/mol | 2.38 ± 0.17 kcal/mol |
| SAGPYVMIRIKWPGGEELSIPIPGAKITDVERDGDHITFMFDSPPAAEDIKEEIEDHFPGLKIEIQPIDSAG [r5_453_TrROS] | 0.288 ± 0.16 kcal/mol | 0.881 ± 0.14 kcal/mol | 1.17 ± 0.2 kcal/mol |
| SKKKVTININITPGDPEQMEENVRWAIKEAAENDPDKEVTITIHFPPGHPEWMRWIKELFTKKGIPITIHSA [r9_1202_TrROS] | 2.88 ± 0.042 kcal/mol | 3.16 ± 0.059 kcal/mol | 3.3 ± 0.037 kcal/mol |
| SAGGSAGGSAGGKKKIKVELEVKEDGTIRMKATTEDGEEIETEIKVEKVEVTVFLPPEKSAGGSAGGSAGGS [r10_237_TrROS_Hall] | 1.74 ± 0.26 kcal/mol | 1.55 ± 0.28 kcal/mol | 1.18 ± 0.23 kcal/mol |
| SAGGSAGGSMPVLVSESPVGTLPDGTKVTRVTYRFPNGEILTETVVEPGPGPPTPENVALTLASAGGSAGGS [r12_775_JUSTAS] | 2.04 ± 0.18 kcal/mol | 1.6 ± 0.29 kcal/mol | 1.19 ± 0.23 kcal/mol |
| SAGGSAGGSASWITITGLLPGGRLVTTRYDPSTGSVSTETTPIPPVPAFPLGPENLALNFLLSAGGSAGGSA [r18_236_JUSTAS] | 0.706 ± 0.044 kcal/mol | 0.746 ± 0.13 kcal/mol | 0.528 ± 0.19 kcal/mol |
| SAGGDNVRPIKFEFKDGVKKSIYRSEDMIYINVEFYYDGRPLYRHSIEIPNIPPGDDAEIKFKIPPGSAGGS [r8_155_TrROS] | 0.372 ± 0.18 kcal/mol | 1.24 ± 0.21 kcal/mol | 1.55 ± 0.22 kcal/mol |
| SAGGKTKEIELEILFEPVKVKKKKKNKNGKEEEVEEKEFKPVLVRITLKIENGKITEIKIEVEKLDDLSAGG [r13_935_TrROS_Hall] | 2.05 ± 0.077 kcal/mol | 2.93 ± 0.26 kcal/mol | 3.37 ± 0.11 kcal/mol |
| SAGGSAGGSGMTVVTLEAEPETAEEAVAAAIQAIRDALPADETIASVEVSFDPATGKVTVVVESAGGSAGGS [r12_308_JUSTAS] | 0.757 ± 0.051 kcal/mol | 1.8 ± 0.12 kcal/mol | 2.01 ± 0.042 kcal/mol |
| SAIEIYIYPDNWMISIEPPNPNGPEKEIMIPIDKDDLKNPEFLKEIADEIMENGIPVEADIMPPGQPIPSAG [r14_60_TrROS] | 0.857 ± 0.27 kcal/mol | 0.307 ± 0.38 kcal/mol | -0.0516 ± 0.13 kcal/mol |
| SAGGSAGGSAGMKVEIEVYELPGGERPVKITVTYENKPKEYEKEAETEEEAEEFAKELLESAGGSAGGSAGG [r11_560_JUSTAS] | -0.237 ± 0.23 kcal/mol | -0.0487 ± 0.57 kcal/mol | 0.039 ± 0.58 kcal/mol |
| SAGGSAGGSPYKEVPVPVRIHSPDGETHEFPGTIWKSPDDGMLEIRFPGNGKKHKIPLNDIQISAGGSAGGS [r12_772_TrROS] | -1.5 ± 0.59 kcal/mol | -0.699 ± 0.22 kcal/mol | -0.606 ± 0.19 kcal/mol |
| SAKIKIEKKEDGTIVIEVEAESEEEAEEAVKELVKELEKKGIKVEVVEVKIEKDPEKKGKYRVTIVIKKSAG [r14_119_TrROS_Hall] | 2.69 ± 0.21 kcal/mol | 3.76 ± 0.33 kcal/mol | 4.39 ± 0.18 kcal/mol |
| SAGGSAGGSAGGSAMTLLSEEELPDGSRRVLMRFPDGTRMELTVHPDGSVEERVTPPAASAGGSAGGSAGGS [r4_483_JUSTAS] | 2.28 ± 0.065 kcal/mol | 2.72 ± 0.086 kcal/mol | 2.904 ± 0.021 kcal/mol |

| Sequence | folding stability dG unfold [1] | folding stability dG unfold [2] | folding stability dG unfold [3] |
| --- | --- | --- | --- |
| SAGGSADVVLVEVRPPVLDPEGRPLLTLVLRLPDGGSRTLVVELSDLAGALANLPPNVRVDEIRPLSAGGSA [r15_339_TrMRF] | 0.443 ± 0.093 kcal/mol | 2.01 ± 0.067 kcal/mol | 2.31 ± 0.035 kcal/mol |
| SAGGMKLEFEAEITVPLPVPTPEGGLEFVPITEPIRIEAEHPEELEIALKEAELETIERALKELGIESAGGS [r16_339_TrMRF] | -0.594 ± 0.19 kcal/mol | -0.845 ± 0.59 kcal/mol | -0.723 ± 0.16 kcal/mol |
| SAGGSAGGSAEYRVVVVPPVPTVLIFVKPDRVYVVDLDPATGRATIRPVNVPPNVLPESLLTSAGGSAGGSA [r18_59_TrMRF] | 1.27 ± 0.02 kcal/mol | 1.52 ± 0.056 kcal/mol | 1.67 ± 0.06 kcal/mol |
| SAGGSAGGSVYSAKSPDGYTITISNGGKPITLPVSDPAKAASLTLKTPDGKTATVTIVPASLASAGGSAGGS [r12_730_JUSTAS] | -0.229 ± 0.12 kcal/mol | -0.216 ± 0.17 kcal/mol | -0.295 ± 0.23 kcal/mol |
| SAGGSSSSTSTRIDPTTGEWVTSTSSFPVPPAPPYIEVRLDVPPEEAEALREKLLAEHPDLPVRLEASAGGS [r8_437_JUSTAS] | 0.336 ± 0.023 kcal/mol | 0.636 ± 0.072 kcal/mol | 0.74 ± 0.029 kcal/mol |
| SAGGSAGGSAGKIKVEKDKKTNEYRVTIELFDKNGKPVKKIEITVKKEDLPKIKELLKKLSAGGSAGGSAGG [r11_77_TrROS_Hall] | 2.96 ± 0.069 kcal/mol | 3.4 ± 0.076 kcal/mol | 3.6 ± 0.1 kcal/mol |
| SAGGSAKITPGEEINFMFYNPENGQPFMVRIRIEKITVKRKPKDGKRKVEYKIKIEMSPGMKEITISAGGSA [r15_248_TrROS] | 2.26 ± 0.15 kcal/mol | 3.23 ± 0.3 kcal/mol | 3.32 ± 0.11 kcal/mol |
| SAGGTVTIFIPGMSLDQIKKFIKFFRDNPDRPVTIHMPNGYMIEIDPKGKIDNIKVRRMPPMPEDDQSAGGS [r16_248_TrROS] | 1.52 ± 0.036 kcal/mol | 2.53 ± 0.12 kcal/mol | 2.93 ± 0.046 kcal/mol |
| SAGGSAGGSMKRLPDGNLVVKLNNGSTWSVITIPVSPDESEEEIKQRLKELFGPNYPEYDISESAGGSAGGS [r12_300_JUSTAS] | 1.08 ± 0.011 kcal/mol | 1.04 ± 0.058 kcal/mol | 0.917 ± 0.09 kcal/mol |
| SAGGRFYFEAKDPSITPEELRAALEEAFGVKFHRIKPVEPLPDGMLYEVEIPEIGGHFDVSAEEIEKLLSAG [r5_550_TrMRF] | 1.27 ± 0.053 kcal/mol | 1.56 ± 0.16 kcal/mol | 1.78 ± 0.077 kcal/mol |
| SAGEYVLVEVERGGKVETFVLPPELAKELLEKYSPDSEIPVKLEGREVRLRVLPIKPKEPTPEELAKAASAG [r5_669_TrMRF] | 0.306 ± 0.085 kcal/mol | 1.41 ± 0.16 kcal/mol | 1.85 ± 0.14 kcal/mol |
| SAGGSAGGSKTIVLPKNMSIEQAREEILAKARELLPPGEKLKVTIEVVETPEGTYLKITIEKESAGGSAGGS [r12_1051_TrROS_Hall] | 2.49 ± 0.06 kcal/mol | 3.22 ± 0.058 kcal/mol | 3.51 ± 0.086 kcal/mol |
| SAGNFKIDINPENNMIMIKSPNGWFMFPFTYTRTQPEPDPDDPNEWKQRPRTETHYIMMPANDLKDLLNSAG [r5_234_TrROS] | 0.679 ± 0.17 kcal/mol | 0.541 ± 0.27 kcal/mol | 0.502 ± 0.24 kcal/mol |
| MVELVEVTRENGLVTVTVANPIPGATLTVEVRDPEGKVLASSTSPSPTVTVTAEIPPDEDFSVTVTQTPPAS [r1_382_JUSTAS] | 3.43 ± 0.14 kcal/mol | > 6 kcal/mol | 3.99 ± 0.2 kcal/mol |
| SAGGSAESIPVDELVELAKKLGLDVTVTPLPETGLVRVEITFTTPDGSKVPATVLVHPDGRTTVFPSAGGSA [r15_1051_TrMRF] | 1.82 ± 0.038 kcal/mol | 2.08 ± 0.032 kcal/mol | 2.208 ± 0.018 kcal/mol |
